Laboratory results from article PMC7948404.

Target: CysLTR2-V2(A)6 L129Q (GFP10 fusion) (UniProt Q9NS75)
Assay: FRET or BRET; BRET^2 saturation-binding in live HEK293T cells: 5 ng β-arrestin2-RLuc3 and 0-200 ng receptor-GFP10 DNA per well; unstimulated, or WT with 1 μM LTD4 for 10 min at RT; BRET^2 ratio against normalized GFP10 fluorescence, one-site fit with shared Bmax; constitutive activity from Bmax/Kd, normalized to the fully LTD4-stimulated WT receptor

Sequence of UniProt Q9NS75 (Q9NS75 other isoform, or with tags, fused parts or gaps L129Q | L129Q): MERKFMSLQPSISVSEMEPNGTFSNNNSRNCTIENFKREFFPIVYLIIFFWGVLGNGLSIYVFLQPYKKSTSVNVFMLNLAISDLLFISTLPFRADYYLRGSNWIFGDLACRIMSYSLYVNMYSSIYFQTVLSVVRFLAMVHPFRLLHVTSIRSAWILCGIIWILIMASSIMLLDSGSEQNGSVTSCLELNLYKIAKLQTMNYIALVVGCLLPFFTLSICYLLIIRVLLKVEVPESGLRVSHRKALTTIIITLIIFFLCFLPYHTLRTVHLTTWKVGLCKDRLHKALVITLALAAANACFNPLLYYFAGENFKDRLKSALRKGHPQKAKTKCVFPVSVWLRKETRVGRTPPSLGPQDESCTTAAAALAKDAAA

β-arrestin2-RLuc3 (from UniProt P32121 1-409) (natural protein)
constitutive activity of β-arrestin recruitment (% of LTD4-stimulated WT receptor): 17.8%
